This is an account of results in patent US20090047703A1.

This assay addresses HERG-1b (human) (UniProt Q12809). The assay is described as follows: cell-based or functional assay.

Consider HERG-1a N-Terminal Domain fused to eCFP, for which the deactivation kinetics, two-electrode voltage clamp in Xenopus oocytes was 10 fold.
